From patent US20030166162

How the values were obtained:
[1] = molecular target: glutathione S transferase KLIP 14 chymosin pro-peptide cystatin fusion protein
[2] = molecular target: glutathione S transferase KLIP 4 chymosin pro-peptide cystatin fusion protein
[3] = molecular target: T1, GST-wild type calf chymosin pro-peptide-cystatin fusion protein, P09229
T1 chain: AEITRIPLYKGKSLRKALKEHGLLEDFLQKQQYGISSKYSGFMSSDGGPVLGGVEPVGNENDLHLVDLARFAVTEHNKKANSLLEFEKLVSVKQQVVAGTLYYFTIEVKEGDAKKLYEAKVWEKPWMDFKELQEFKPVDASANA

[4] = molecular target: glutathione S transferase KLIP 12 chymosin pro-peptide cystatin fusion protein
[5] = molecular target: glutathione S transferase KLIP 16 chymosin pro-peptide cystatin fusion protein
[6] = molecular target: glutathione S transferase KLIP 15 chymosin pro-peptide cystatin fusion protein
[7] = molecular target: glutathione S transferase KLIP 11 chymosin pro-peptide cystatin fusion protein

B1: calf chymosin (protein)
chain: GEVASVPLTNYLDSQYFGKIYLGTPPQEFTVLFDTGSSDFWVPSIYCKSNACKNHQRFDPRKSSTFQNLGKPLSIHYGTGSMQGILGYDTVTVSNIVDIQQTVGLSTQEPGDVFTYAEFDGILGMAYPSLASEYSIPVFDNMMNRHLVAQDLFSVYMDRNGQESMLTLGAIDPSYYTGSLHWVPVTVQQYWQFTVDSVTISGVVVACEGGCQAILDTGTSKLVGPSSDILNIQQAIGATQNQYGEFDIDCDNLSYMPTVVFEINGKMYPLTPSAYTSQDQGFCTSGFQSENHSQKWILGDVFIREYYSVFDRANNLVGLAKAI
[1]
  % Cystatin accumulation following reaction, 0.5 hr @ 37 C: 72%
  % Cystatin accumulation following reaction, 1.0 hr @ 37 C: 87%
  % Cystatin accumulation following reaction, 2.0 hr @ 37 C: 99%
  % Cystatin accumulation following reaction, 16 hr @ RT: 70%
  % Cystatin accumulation following reaction, T = 0: 0%
[2]
  % Cystatin accumulation following reaction, 0.5 hr @ 37 C: 100%
  % Cystatin accumulation following reaction, 1.0 hr @ 37 C: 100%
  % Cystatin accumulation following reaction, 2.0 hr @ 37 C: 100%
  % Cystatin accumulation following reaction, 16 hr @ RT: 87%
  % Cystatin accumulation following reaction, T = 0: 0%
[3]
  % Cystatin accumulation following reaction, 16 hr @ RT; product with N-terminus MSSDGG: 50%
  % Cystatin accumulation following reaction, 16 hr @ RT; product with N-terminus SGFMSSDGG: 50%
  % Cystatin accumulation following reaction, T = 0: 0%
[4]
  % Cystatin accumulation following reaction, 0.5 hr @ 37 C: 84%
  % Cystatin accumulation following reaction, 1.0 hr @ 37 C: 99.4%
  % Cystatin accumulation following reaction, 2.0 hr @ 37 C: 87%
  % Cystatin accumulation following reaction, 16 hr @ RT: 64%
  % Cystatin accumulation following reaction, T = 0: 0%
[5]
  % Cystatin accumulation following reaction, 0.5 hr @ 37 C: 0%
  % Cystatin accumulation following reaction, 1.0 hr @ 37 C: 0%
  % Cystatin accumulation following reaction, 2.0 hr @ 37 C: 0%
  % Cystatin accumulation following reaction, 16 hr @ RT: 0%
  % Cystatin accumulation following reaction, T = 0: 0%
  Scissile bond (N-terminal sequence): Uncleavable
[6]
  % Cystatin accumulation following reaction, 0.5 hr @ 37 C: 40%
  % Cystatin accumulation following reaction, 1.0 hr @ 37 C: 57.8%
  % Cystatin accumulation following reaction, 2.0 hr @ 37 C: 77.8%
  % Cystatin accumulation following reaction, 16 hr @ RT: 85%
  % Cystatin accumulation following reaction, T = 0: 0%
[7]
  % Cystatin accumulation following reaction, 0.5 hr @ 37 C: 83%
  % Cystatin accumulation following reaction, 1.0 hr @ 37 C: 80.5%
  % Cystatin accumulation following reaction, 2.0 hr @ 37 C: 100%
  % Cystatin accumulation following reaction, 16 hr @ RT: 67.8%
  % Cystatin accumulation following reaction, T = 0: 0%
